In experiment [1] the target is T1, calcitonin receptor (Homo sapiens, UniProt P30988).
T1 sequence (P30988 25-474): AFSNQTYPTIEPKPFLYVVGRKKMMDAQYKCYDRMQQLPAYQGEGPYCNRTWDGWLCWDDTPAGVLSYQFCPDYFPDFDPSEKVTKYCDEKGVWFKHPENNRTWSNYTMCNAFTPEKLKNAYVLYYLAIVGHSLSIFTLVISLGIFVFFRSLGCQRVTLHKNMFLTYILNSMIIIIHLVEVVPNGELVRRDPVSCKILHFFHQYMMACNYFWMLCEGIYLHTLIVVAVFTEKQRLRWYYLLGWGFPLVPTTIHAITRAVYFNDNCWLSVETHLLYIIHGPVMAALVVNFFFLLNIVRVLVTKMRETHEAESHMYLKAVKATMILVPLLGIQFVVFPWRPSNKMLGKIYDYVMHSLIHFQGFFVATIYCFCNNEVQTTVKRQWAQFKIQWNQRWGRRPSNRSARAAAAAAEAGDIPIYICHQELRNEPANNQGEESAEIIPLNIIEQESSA
The experiment in a line: Live cell cAMP accumulation (GloSensor), COS-7 cells transfected with calcitonin receptor. As to conditions: calcitonin + vehicle, Fig. 1F, fraction of greatest slope, ± SEM, n = 3. More on the design: host or cells: COS-7 (African monkey kidney) in A3. The format is cell-based. (In general: Changes in cAMP serve as a functional read-out for many G protein-coupled receptors.)

Experiment [2] has as its target T1, calcitonin receptor. Kind of experiment: Live cell cAMP accumulation (GloSensor), UMR-106 cells transfected with calcitonin receptor. The format is cell-based. More on the design: host or cells: UMR-106 (rat osteoblast-like) in A1; COS-7 (African monkey kidney) in A3. As to conditions: calcitonin + vehicle, Fig. 1B, fraction of greatest slope, best-fit ± SEM, n = 3.

Experiment [3] deals with T1, calcitonin receptor. Kind of experiment: Live cell cAMP accumulation (GloSensor), MCF-7 cells with endogenous calcitonin receptor. The format is cell-based. The arrangement: COS-7 (African monkey kidney) in A3. As to conditions: calcitonin + vehicle, Fig. 1D, fraction of greatest slope, ± SEM, n = 3.
The target of experiment [4] is calcitonin receptor (UniProt P30988).
In experiment [5] the target is calcitonin receptor, endogenous in MCF-7 cells (human (endogenous in MCF-7)) (UniProt P30988).
Experiment [6] concerns the target T2, vasoactive intestinal polypeptide receptor 1 (UniProt P32241).
T2 sequence: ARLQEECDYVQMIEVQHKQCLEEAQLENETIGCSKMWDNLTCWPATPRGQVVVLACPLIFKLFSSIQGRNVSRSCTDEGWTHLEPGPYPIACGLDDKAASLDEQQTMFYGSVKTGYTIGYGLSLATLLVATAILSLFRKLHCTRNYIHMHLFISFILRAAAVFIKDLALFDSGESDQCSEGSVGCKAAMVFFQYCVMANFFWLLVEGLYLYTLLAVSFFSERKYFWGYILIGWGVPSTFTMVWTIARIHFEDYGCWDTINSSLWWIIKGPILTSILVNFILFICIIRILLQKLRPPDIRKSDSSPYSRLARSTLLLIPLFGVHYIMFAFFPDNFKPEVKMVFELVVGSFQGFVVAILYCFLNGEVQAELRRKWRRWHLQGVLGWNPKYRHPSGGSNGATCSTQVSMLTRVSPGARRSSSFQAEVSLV

Experiment [7] concerns the target T3, vasoactive intestinal polypeptide receptor 2 (UniProt P41587).
T3 sequence: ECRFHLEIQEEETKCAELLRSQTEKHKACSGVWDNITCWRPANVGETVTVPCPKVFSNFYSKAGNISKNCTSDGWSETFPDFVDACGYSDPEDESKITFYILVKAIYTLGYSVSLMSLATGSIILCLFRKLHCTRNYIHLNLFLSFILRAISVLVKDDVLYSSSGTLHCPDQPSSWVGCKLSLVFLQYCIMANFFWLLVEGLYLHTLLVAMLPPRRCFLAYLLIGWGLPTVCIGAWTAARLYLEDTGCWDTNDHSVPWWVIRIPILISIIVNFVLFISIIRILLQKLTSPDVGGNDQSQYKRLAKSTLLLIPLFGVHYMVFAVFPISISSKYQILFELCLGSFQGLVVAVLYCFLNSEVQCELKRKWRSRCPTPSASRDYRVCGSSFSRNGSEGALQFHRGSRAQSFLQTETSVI

Experiment [8] addresses T4, VPAC1R, endogenous in SaOS-2 cells (human (endogenous in SaOS-2)) (UniProt P32241).
T4 sequence: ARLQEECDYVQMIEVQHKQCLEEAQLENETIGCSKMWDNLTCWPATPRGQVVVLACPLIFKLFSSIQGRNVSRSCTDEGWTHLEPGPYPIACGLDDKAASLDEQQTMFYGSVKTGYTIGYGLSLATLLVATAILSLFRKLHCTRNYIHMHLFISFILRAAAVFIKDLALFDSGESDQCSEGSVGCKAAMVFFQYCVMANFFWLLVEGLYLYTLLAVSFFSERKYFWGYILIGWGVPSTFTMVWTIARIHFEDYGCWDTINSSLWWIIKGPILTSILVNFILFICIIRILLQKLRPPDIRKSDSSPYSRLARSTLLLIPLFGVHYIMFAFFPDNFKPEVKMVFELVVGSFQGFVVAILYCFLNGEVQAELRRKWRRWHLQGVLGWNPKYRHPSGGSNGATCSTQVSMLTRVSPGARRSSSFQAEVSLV

In the case of `CC(C)C[C@H](NC(=O)[C@H](CCCCN)NC(=O)CNC(=O)[C@H](CC(C)C)NC(=O)[C@@H](NC(=O)[C@@H]1CSSC[C@H](N)C(=O)N[C@@H](CO)C(=O)N[C@@H](CC(N)=O)C(=O)N[C@@H](CC(C)C)C(=O)N[C@@H](CO)C(=O)N[C@@H]([C@@H](C)O)C(=O)N1)C(C)C)C(=O)N[C@@H](CO)C(=O)N[C@@H](CCC(N)=O)C(=O)N[C@@H](CCC(=O)O)C(=O)N[C@@H](CC(C)C)C(=O)N[C@@H](Cc1c[nH]cn1)C(=O)N[C@@H](CCCCN)C(=O)N[C@@H](CC(C)C)C(=O)N[C@@H](CCC(N)=O)C(=O)N[C@H](C(=O)N[C@@H](Cc1ccc(O)cc1)C(=O)N1CCC[C@H]1C(=O)N[C@@H](CCCNC(=N)N)C(=O)N[C@H](C(=O)N[C@@H](CC(N)=O)C(=O)N[C@H](C(=O)NCC(=O)N[C@@H](CO)C(=O)NCC(=O)N[C@H](C(=O)N1CCC[C@H]1C(N)=O)[C@@H](C)O)[C@@H](C)O)[C@@H](C)O)[C@@H](C)O` [calcitonin, Salmon calcitonin], the “Normalized Maximum” value is on record as 0.69 ± 0.04 in experiment [1], 0.69 ± 0.04 in experiment [2] and 0.68 ± 0.05 in experiment [3].
For Salmon calcitonin (peptide), in experiment [4], the −LogEC50 of calcitonin, maximum rate of cAMP accumulation (GloSensor), COS-7 cells transfected with calcitonin receptor, vehicle (Fig. 1F) (−LogEC50 (EC50 in M)) came to 9.64; the −LogEC50 of calcitonin, maximum rate of cAMP accumulation (GloSensor), COS-7 cells transfected with calcitonin receptor, with ATP 1.5 mM (Fig. 1F) (−LogEC50 (EC50 in M)) came out at 10.5; the −LogEC50 of calcitonin, maximum rate of cAMP accumulation (GloSensor), UMR-106 cells transfected with calcitonin receptor, vehicle (Fig. 1B) (−LogEC50 (EC50 in M)) turned out to be 9.15; the −LogEC50 of calcitonin, maximum rate of cAMP accumulation (GloSensor), UMR-106 cells transfected with calcitonin receptor, with ATP 1.5 mM (Fig. 1B) (−LogEC50 (EC50 in M)) came out at 10.3. In experiment [5], the −LogEC50 of calcitonin, maximum rate of cAMP accumulation (GloSensor), MCF-7 cells (endogenous calcitonin receptor), vehicle (Fig. 1D) (−LogEC50 (EC50 in M)) amounted to 8.19 and the −LogEC50 of calcitonin, maximum rate of cAMP accumulation (GloSensor), MCF-7 cells (endogenous calcitonin receptor), with ATP 1.5 mM (Fig. 1D) (−LogEC50 (EC50 in M)) came to 9.86.
In experiment [6], HSDAVFTDNYTRLRKQMAVKKYLNSILN [vasoactive intestinal peptide] came in with a −LogEC50 of VIP, maximum rate of cAMP accumulation (GloSensor), COS-7 cells transfected with VPAC1R, vehicle (Fig. 6E) (−LogEC50 (EC50 in M)) of 9.56 and a −LogEC50 of VIP, maximum rate of cAMP accumulation (GloSensor), COS-7 cells transfected with VPAC1R, with ATP 1.5 mM (Fig. 6E) (−LogEC50 (EC50 in M)) of 10.3. In experiment [7], this molecule came in with a −LogEC50 of VIP, maximum rate of cAMP accumulation (GloSensor), COS-7 cells transfected with VPAC2R, vehicle (Fig. 6H) (−LogEC50 (EC50 in M)) of 8.9 and a −LogEC50 of VIP, maximum rate of cAMP accumulation (GloSensor), COS-7 cells transfected with VPAC2R, with ATP 1.5 mM (Fig. 6H) (−LogEC50 (EC50 in M)) of 9.42. In experiment [8], this molecule gave a −LogEC50 of VIP, maximum rate of cAMP accumulation (GloSensor), SaOS-2 cells (endogenous VPAC1R), vehicle (Fig. 6K) (−LogEC50 (EC50 in M)) of 8.35 and a −LogEC50 of VIP, maximum rate of cAMP accumulation (GloSensor), SaOS-2 cells (endogenous VPAC1R), with ATP 1.5 mM (Fig. 6K) (−LogEC50 (EC50 in M)) of 9.24.

Values taken from article PMC12264551 (Molecular Pharmacology, 2025).
